In IntAct's records for PubMed 19534813:

B1: Twist-related protein 1 (Homo sapiens), Q15672 (parent)
chain: MMQDVSSSPVSPADDSLSNSEEEPDRQQPPSGKRGGRKRRSSRRSAGGGAGPGGAAGGGVGGGDEPGSPAQGKRGKKSAGCGGGGGAGGGGGSSSGGGSPQSYEELQTQRVMANVRERQRTQSLNEAFAALRKIIPTLPSDKLSKIQTLKLAARYIDFLYQVLQSDELDSKMASCSYVAHERLSYAFSVWRMEGAWSMSASH

Variants of: B1
Settings: with itf2_human TCF4, P15884
Sequence of itf2_human TCF4, P15884 (P15884 whole entry): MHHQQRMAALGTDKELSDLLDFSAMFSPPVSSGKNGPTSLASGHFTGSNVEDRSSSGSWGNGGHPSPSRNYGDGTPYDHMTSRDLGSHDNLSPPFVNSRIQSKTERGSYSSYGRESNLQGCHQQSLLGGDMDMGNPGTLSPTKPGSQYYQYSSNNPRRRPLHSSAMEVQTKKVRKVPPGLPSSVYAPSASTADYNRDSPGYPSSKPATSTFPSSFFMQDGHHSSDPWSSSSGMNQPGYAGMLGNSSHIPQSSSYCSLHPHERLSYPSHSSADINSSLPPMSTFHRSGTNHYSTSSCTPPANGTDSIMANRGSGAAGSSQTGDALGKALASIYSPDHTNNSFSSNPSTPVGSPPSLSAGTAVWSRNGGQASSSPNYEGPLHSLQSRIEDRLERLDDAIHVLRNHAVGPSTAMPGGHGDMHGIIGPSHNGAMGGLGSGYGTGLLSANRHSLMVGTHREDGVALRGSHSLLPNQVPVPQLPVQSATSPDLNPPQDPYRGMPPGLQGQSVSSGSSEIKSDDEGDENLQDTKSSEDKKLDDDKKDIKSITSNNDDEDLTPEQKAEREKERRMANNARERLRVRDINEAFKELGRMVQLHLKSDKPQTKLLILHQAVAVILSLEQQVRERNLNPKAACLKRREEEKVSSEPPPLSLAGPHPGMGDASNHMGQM

effect of a mutation on the interaction	Variant
with no effect	K38R
with no effect	K73R
with no effect	K77R
